The test system of data set [1] is Rtf1 HMD74-184 (histone modification domain) (Saccharomyces cerevisiae). The data set is described as follows: EMSA. The conditions noted are these: 50 mM Tris-HCl pH 7.5, 150 mM NaCl, 2 mM arginine, 0.01% CHAPS, 0.01% NP-40, 1 uM BSA, 3 nM nucleosome, 30 min on ice, 4-12% Tris-glycine native PAGE.
Data set [2] addresses acidic patch mutant X. laevis nucleosome (H2A E61A, E64A, D90A, E92A) (X. laevis). In words: native gel or EMSA; 3 nM nucleosomes with increasing recombinant HMD, 30 min on ice, 50 mM Tris-HCl pH 7.5, 150 mM NaCl, 2 mM arginine, 0.01% CHAPS, 0.01% NP-40, 1 μM BSA; 4-12% native PAGE, SYBR Green; Kd by non-linear least squares regression. Background: A gel shift assay detects complexes by their altered migration in electrophoresis.

Data set [3] concerns the target wild-type X. laevis nucleosome (X. laevis). The data set is described as above.

The Kd is the constant that tells how readily two partners part at equilibrium. In the case of wild-type X. laevis nucleosome, in data set [1] (wild-type histone octamer), the Kd was determined as 0.1 µM.
Regarding “recombinant HMD_(74-184) (Rtf1 histone modification domain) (from UniProt P53064 74-184) (domain or fragment)”, the Kd amounted to 0.25 µM in data set [2] and 0.1 µM in data set [3].
On to “acidic patch mutant X. laevis nucleosome (H2A E61A, E64A, D90A, E92A)”, for which the dissociation constant Kd in data set [1] (histone H2A E61A;E64A;D90A;E92A) came out at 0.25 µM.

For the origin of these results see publication PMC6895269.
